Consider 15 sequences from the DeepSol protein solubility set.

This data set is described as follows: soluble on expression in E. coli; label from the status in PepcDB or PDB records.
Turning to “MSLMMFRYANFQIIKKEQELVISRGIIEKHQVTIPLRKIQAIKIKENIIRQLFGFVTVSIVSAGGGDREKEEGALTILFPMIHKKKLPHMLRTFTPEYTLEENCRRLPRREGHHHHHH”, the “soluble on expression in E. coli” value was “not soluble”.
With “MRYRPVIGLEIHVQLSTKTKAFCSCPADVFELPPNTAICPVCTGQPGALPVPNEEMIRFAVKTALALNCKIHKYSRFDRKNYFYPDLPKGYQISQYFYPIATEGFLEIDGDEGRKKVRIRRLHLEEDAGKLVHEGDSITRASYSLVDMNRCGVPLIEIVTEPDISSPREARVFMEKLRSIVRYLGVSTGDMEKGALRCDANISVVDTETGRQSNRVEVKNMNSFRFVERALEYEFERIVKAMERGEDVERETRGWDMATKITVSMRGKEEESDYRYFPEPDIPPVVLSDEYLEEVKKELPELPDEKAERFMREYGLPEYDAKVLTSSKELAEFFEECVKVVNRPKDLSNWIMTEVLRELNERNIEITESKLTPQHFADLFKLMDEGKISIKIAKEIFPEVFETGKMPSQIVEEKGLTQINDEKLIEELVKKAMEQNPKAVQDYKSGKKKAAGFFVGYVMRETKGKANPELTNRIIQKLLEGE” the entry was “soluble”; with “MAFDDLRSFLQALDDHGQLLKISEEVNAEPDLAAAANATGRIGDGAPALWFDNIRGFTDARVAMNTIGSWQNHAISLGLPPNTPVKKQIDEFIRRWDNFPIAPERRANPAWAQNTVDGEEINLFDILPLFRLNDGDGGFYLDKACVVSRDPLDPDNFGKQNVGIYRMEVKGKRKLGLQPVPMHDIALHLHKAEERGEDLPIAITLGNDPIITLMGATPLKYDQSEYEMAGALRESPYPIATAPLTGFDVPWGSEVILEGVIESRKREIEGPFGEFTGHYSGGRNMTVVRIDKVSYRSKPIFESLYLGMPWTEIDYLLEHHHHHH”, “not soluble”.
On to “HMAKATTIKDAIRIFEERKSVVATEAEKVELHGMIPPIEKMDATLSTLKACKHLALSTNNIEKISSLSGMENLRILSLGRNLIKKIENLDAVADTLEELWISYNQIASLSGIEKLVNLRVLYMSNNKITNWGEIDKLAALDKLEDLLLAGNPLYNDYKENNATSEYRIEVVKRLPNLKKLDGMPVDVDEREQANVARGG”, for which the “soluble on expression in E. coli” value is “soluble”.
With “MSLKKIWLGILISVCTLLGADMSLWQKSTLNEIIKRGELRVGLEPGYLPFEMKDKKGNVIGFDVDLAREMAKAMGVKLKLVPTSWDGLIPGLVTEKFDIIISGMTISQERNLRVNFVEPYIVVGQSLLVKKGLEKGVKSYKDLDKPELTLVTKFGVSAEYAAKRLFKNAKLKTYDTEAEAVQEVLNGKADMFIFDLPFNVAFMAQKGQGYLVHLDTSLTYEPLGWAIKKGDPDFLNWLNHFLAQIKHDGSYDELYERWFVDTKWLEKIQEGHHHHHH” the entry was “soluble”.
Then “MGNCLSTSDPSHEDVSKKLPKALPVDAAFKFPSPLPTFTRGDGFAKGTIDLGGGLEVSQVSTFNKVWSTYEGGPDNLGATFFEPSSIPSGFSILGYYAQPNNRNLFGWVLTARDLSSNTLKPPVDYTLVGNTESLKIKQDGTGYFWQPVPPDGYQAVGLIVTNYSQKPPLDKLRCIRSDLTEQCEADTWIWGTNGVNISNLKPTTRGTQATGVYVGTFTWQTQNSSPPSLSCLKNTKLDFSTMPNGSQIEELFQTFSPCIYFHPDEEYLPSSVTWYFNNGALLYKKGEESKPIPIESNGSNLPQGGSNDGSYWLDLPIDKNGKERVKKGDLQSTKVYLHIKPMLGATFTDISIWIFYPFNGPAKAKVKFVNLPLGRIGEHIGDWEHTTLRISNFTGELWRVFLSQHSGGIWIDACDLEFQDGGNNKFVAYASLHGHAMYPKPGLVLQGDDGVGIRNDTGKGKKVLDTGLGYEVIAAEYDGGGVVEPPWVKYFRKWGPKIDYNVDDEVKSVERILPGLLKKAFVKFVKKIPDEVYGEDGPTGPKLKSNWAGDES”, with “not soluble”; and “MMTESHGYLSNNLPVKIINDIIYATQLVEDLVLGKIKIVDFLKSYNNFYCWLGFDELPQSEKIKFLSYLNILSIHKEIQDETVNRVYTD”, with “not soluble”; and “MGSDKIHHHHHHMSSNSRVYGIVPSKRLGRSLGVSPIPFKTCTYSCVYCQLGRTTNFTVKRQTFFPLKVFEEELKGFVKRHRYDFDVVSIVGEGEPTLYTPLDALIDLCKSITGKPVVLITNGSLFWSEKVRKEAKLSDIIMPTLSAWDEKSFRTIHKPHKNLSFQKVFEGLKKFRREYSGEIWLEVMLVKGLNDFALEELKEKISQVESDRVYVNVPVRPPAEGWVEPPDEETIEKAKELFNAASIETPAASRFIAAGEGIDAVLNVIKRHPMNEEEVRDLLTSQKIDPKPVLEKLRSCKNVKIIEYSGRRYYRYTTAE”, with “not soluble”.
On to “MGSDKIHHHHHHMNKINRVAIVGGTHGNEFTGAFLVKKFQQFPEVIQKPSFETLTILGNPKAFEAGKRYIEKDLNRCFLTESLQNTNLSSYEDIRAKQIAGVLGAENKPNVDVVIDLHSTTANMGLSIILGNQDPFLLKLCAYLSDINPLVKVCYTIPEKGSNFLRSLNKLGFVIEVGAVAQGVLNAELFQKTEQLIYTILDYLEQYNRGNIPKINNLLALYKFTGTVDYPRNENGDIQGMIHPDIQFRDYEPLNPGDPLFLTLDGKAIAYEGTSTVYPIFINEAAYYEKGIAMLFTEKQLINPSS”, for which the “soluble on expression in E. coli” value is “not soluble”.
On to “MVKQVFNFNAGPSALPKPALERAQKELLNFNDTQMSVMELSHRSQSYEEVHEQAQNLLRELLQIPNDYQILFLQGGASLQFTMLPMNLLTKGTIGNYVLTGSWSEKALKEAKLLGETHIAASTKANSYQSIPDFSEFQLNENDAYLHITSNNTIYGTQYQNFPEINHAPLIADMSSDILSRPLKVNQFGMIYAGAQKNLGPSGVTVVIVKKDLLNTKVEQVPTMLQYATHIKSDSLYNTPPTFSIYMLRNVLDWIKDLGGAEAIAKQNEEKAKIIYDTIDESNGFYVGHAEKGSRSLMNVTFNLRNEELNQQFLAKAKEQGFVGLNGHRSVGGCRASIYNAVPIDACIALRELMIQFKENA”, for which the “soluble on expression in E. coli” value is on record as “soluble”.
With “GSHMVGPTYSTAVLNCLKNLDLWCFDVFSLNQAADDHALRTIVFELLTRHNLISRFKIPTVFLMSFLDALETGYGKYKNPYHNQIHAADVTQTVHCFLLRTGMVHCLSEIELLAIIFAAAIHDYEHTGTTNSFHIQTKSECAIVYNDRSVLENHHISSVFRLMQDDEMNIFINLTKDEFVELRALVIEMVLATDMSCHFQQVKTMKTALQQLERIDKPKALSLLLHAADISHPTKQWLVHSRWTKALMEEFFRQGDKEAELGLPFSPLCDRTSTLVAQSQIGFIDFIVEPTFSVLTDVAEKSVQPLADEDSKSKNQPSFQWRQPSLDVEVGDPNPDVVSFRSTWVKRIQENKQKWKERAASGITN”, the “soluble on expression in E. coli” value was “soluble”.
On to “ANVKLLLPYILKWEGGFVHDPADAGGATNKGVTIATWKRVGYDKDGDGDIDVEDLKLLTDDDVLNRVLKPFYWDRWKADLIESQKVANILVDWVWGSGKYGIVIPQRILGVQADGIVGNKTLQAVNSADPDELFESIFDARREFLEDITARSIKKYEDSIGRKATERELLRHTNKRFLRGWLNRLEDI”, for which the “soluble on expression in E. coli” value is “not soluble”.
Take “MGSDKIHHHHHHMAEPSGLLKKGEKMDSMLCTKRTLLSDEFQHWARLFMKTGKLHRKFWEWCFIAQALKEHDMLAPGRIGLGFGVGEEPLSSCFASFGASILATDLDLQNSSVAGWTKTSQHADNKGKLNKLGICPGWEFENLVEFEFANMNSIPKRYTGKFDFVWSSCSLEHLGSIEKGVTFILNSINCLKPGGVAVHTTEFNVSPNSDTIETGPTVLFRRKEIEDIIERVRSFGCRAHINWDHGDLPEDYYIDIPPYSHNPHLKLRISKYVVTSIGLVISK”: the “soluble on expression in E. coli” value is given as “not soluble”.
With “MKTTLIISTYNRPEALSVCLDSVRFQTVMPDEVIVGDDGSTSETKDLIESFKKDFPVPLIHLWQEDKGFRLAMMRNKSVAAATGDYIIEIDGDIFLHNKFVEDHKRLAKPGHYLRGTRVNLGQKLTEEICKSKVNRRIYPWTIGIQNRAETAIHSTPVSNFFADRYKKNVSSGLGCNMSFWRSDFLAINGYDEFFEGWGKEDDDLTHRLQRKGCKKRSLRFAGIVYHLWHGHESMESDQKNAEYFRKNNEKNIVYCENGVSKYLKQELEHHHHHH” the entry was “soluble”; with “LESLEVMIMLDTLRAINNPLNDYALVALLRSPMFNFNEDDLTRIAVQADKGQFYDKLLAAHTKSGLHPEVVMQGLEAKLTLFTETLADWRDYSKCHSIYDLIWKIYNDRFYYDYVGGLPRAEQRQANLYALALRANAYEKTGFKGLSRFIGMI”, “not soluble”.
